{"source": "paper PMC3570535", "system": "His-DLA2 (RBP63, Cr-E2) (Chlamydomonas reinhardtii)", "assay": "filter binding", "conditions": "5 mM Mg2+; 6.7 pM RNA; 20 mM HEPES/KOH pH 7.8, 5 mM MgCl2, 60 mM KCl, RT; 5 min (UV cross-linking, 254 nm, 1 J/cm2) or 15 min (filter binding); native fractions dialyzed to 30 mM …"}
{"substance": "psbA 5' UTR RNA", "values": [{"measurement": "Kd", "result": 0.051, "unit": "µM"}]}
